B1: Angiomotin (Homo sapiens), Q4VCS5 (parent)
chain: MRNSEEQPSGGTTVLQRLLQEQLRYGNPSENRSLLAIHQQATGNGPPFPSGSGNPGPQSDVLSPQDHHQQLVAHAARQEPQGQEIQSENLIMEKQLSPRMQNNEELPTYEEAKVQSQYFRGQQHASVGAAFYVTGVTNQKMRTEGRPSVQRLNPGKMHQDEGLRDLKQGHVRSLSERLMQMSLATSGVKAHPPVTSAPLSPPQPNDLYKNPTSSSEFYKAQGPLPNQHSLKGMEHRGPPPEYPFKGMPPQSVVCKPQEPGHFYSEHRLNQPGRTEGQLMRYQHPPEYGAARPAQDISLPLSARNSQPHSPTSSLTSGGSLPLLQSPPSTRLSPARHPLVPNQGDHSAHLPRPQQHFLPNQAHQGDHYRLSQPGLSQQQQQQQQQHHHHHHHQQQQQQQPQQQPGEAYSAMPRAQPSSASYQPVPADPFAIVSRAQQMVEILSDENRNLRQELEGCYEKVARLQKVETEIQRVSEAYENLVKSSSKREALEKAMRNKLEGEIRRMHDFNRDLRERLETANKQLAEKEYEGSEDTRKTISQLFAKNKESQREKEKLEAELATARSTNEDQRRHIEIRDQALSNAQAKVVKLEEELKKKQVYVDKVEKMQQALVQLQAACEKREQLEHRLRTRLERELESLRIQQRQGNCQPTNVSEYNAAALMELLREKEERILALEADMTKWEQKYLEENVMRHFALDAAATVAAQRDTTVISHSPNTSYDTALEARIQKEEEEILMANKRCLDMEGRIKTLHAQIIEKDAMIKVLQQRSRKEPSKTEQLSCMRPAKSLMSISNAGSGLLSHSSTLTGSPIMEEKRDDKSWKGSLGILLGGDYRAEYVPSTPSPVPPSTPLLSAHSKTGSRDCSTQTERGTESNKTAAVAPISVPAPVAAAATAAAITATAATITTTMVAAAPVAVAAAAAPAAAAAPSPATAAATAAAVSPAAAGQIPAAASVASAAAVAPSAAAAAAVQVAPAAPAPVPAPALVPVPAPAAAQASAPAQTQAPTSAPAVAPTPAPTPTPAVAQAEVPASPATGPGPHRLSIPSLTCNPDKTDGPVFHSNTLERKTPIQILGQEPDAEMVEYLI
partner: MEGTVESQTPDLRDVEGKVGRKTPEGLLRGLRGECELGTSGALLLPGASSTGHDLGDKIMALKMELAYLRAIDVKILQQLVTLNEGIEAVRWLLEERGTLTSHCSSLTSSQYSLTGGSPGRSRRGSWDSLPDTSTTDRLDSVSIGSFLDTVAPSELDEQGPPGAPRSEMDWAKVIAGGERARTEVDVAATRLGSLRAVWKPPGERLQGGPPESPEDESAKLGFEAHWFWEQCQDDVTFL
B2: Vacuolar protein-sorting-associated protein 25 (Homo sapiens), Q9BRG1 (parent)
chain: MAMSFEWPWQYRFPPFFTLQPNVDTRQKQLAAWCSLVLSFCRLHKQSSMTVMEAQESPLFNNVKLQRKLPVESIQIVLEELRKKGNLEWLDKSKSSFLIMWRRPEEWGKLIYQWVSRSGQNNSVFTLYELTNGEDTEDEEFHGLDEATLLRALQALQQEHKAEIITVSDGRGVKFF
partner: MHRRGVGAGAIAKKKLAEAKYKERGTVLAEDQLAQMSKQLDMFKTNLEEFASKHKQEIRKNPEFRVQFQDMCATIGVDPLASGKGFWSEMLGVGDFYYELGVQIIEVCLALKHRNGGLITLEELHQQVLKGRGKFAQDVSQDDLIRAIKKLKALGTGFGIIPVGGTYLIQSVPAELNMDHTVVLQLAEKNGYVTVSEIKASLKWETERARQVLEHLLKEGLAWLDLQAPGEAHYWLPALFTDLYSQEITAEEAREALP
B3: Isoform 1 of 1-aminocyclopropane-1-carboxylate synthase-like protein 1 (Homo sapiens), Q96QU6-1 (parent)
chain: MFTLPQKDFRAPTTCLGPTCMQDLGSSHGEDLEGECSRKLDQKLPELRGVGDPAMISSDTSYLSSRGRMIKWFWDSAEEGYRTYHMDEYDEDKNPSGIINLGTSENKLCFDLLSWRLSQRDMQRVEPSLLQYADWRGHLFLREEVAKFLSFYCKSPVPLRPENVVVLNGGASLFSALATVLCEAGEAFLIPTPYYGAITQHVCLYGNIRLAYVYLDSEVTGLDTRPFQLTVEKLEMALREAHSEGVKVKGLILISPQNPLGDVYSPEELQEYLVFAKRHRLHVIVDEVYMLSVFEKSVGYRSVLSLERLPDPQRTHVMWATSKDFGMSGLRFGTLYTENQDVATAVASLCRYHGLSGLVQYQMAQLLRDRDWINQVYLPENHARLKAAHTYVSEELRALGIPFLSRGAGFFIWVDLRKYLPKGTFEEEMLLWRRFLDNKVLLSFGKAFECKEPGWFRFVFSDQVHRLCLGMQRVQQVLAGKSQVAEDPRPSQSQEPSDQRR
partner: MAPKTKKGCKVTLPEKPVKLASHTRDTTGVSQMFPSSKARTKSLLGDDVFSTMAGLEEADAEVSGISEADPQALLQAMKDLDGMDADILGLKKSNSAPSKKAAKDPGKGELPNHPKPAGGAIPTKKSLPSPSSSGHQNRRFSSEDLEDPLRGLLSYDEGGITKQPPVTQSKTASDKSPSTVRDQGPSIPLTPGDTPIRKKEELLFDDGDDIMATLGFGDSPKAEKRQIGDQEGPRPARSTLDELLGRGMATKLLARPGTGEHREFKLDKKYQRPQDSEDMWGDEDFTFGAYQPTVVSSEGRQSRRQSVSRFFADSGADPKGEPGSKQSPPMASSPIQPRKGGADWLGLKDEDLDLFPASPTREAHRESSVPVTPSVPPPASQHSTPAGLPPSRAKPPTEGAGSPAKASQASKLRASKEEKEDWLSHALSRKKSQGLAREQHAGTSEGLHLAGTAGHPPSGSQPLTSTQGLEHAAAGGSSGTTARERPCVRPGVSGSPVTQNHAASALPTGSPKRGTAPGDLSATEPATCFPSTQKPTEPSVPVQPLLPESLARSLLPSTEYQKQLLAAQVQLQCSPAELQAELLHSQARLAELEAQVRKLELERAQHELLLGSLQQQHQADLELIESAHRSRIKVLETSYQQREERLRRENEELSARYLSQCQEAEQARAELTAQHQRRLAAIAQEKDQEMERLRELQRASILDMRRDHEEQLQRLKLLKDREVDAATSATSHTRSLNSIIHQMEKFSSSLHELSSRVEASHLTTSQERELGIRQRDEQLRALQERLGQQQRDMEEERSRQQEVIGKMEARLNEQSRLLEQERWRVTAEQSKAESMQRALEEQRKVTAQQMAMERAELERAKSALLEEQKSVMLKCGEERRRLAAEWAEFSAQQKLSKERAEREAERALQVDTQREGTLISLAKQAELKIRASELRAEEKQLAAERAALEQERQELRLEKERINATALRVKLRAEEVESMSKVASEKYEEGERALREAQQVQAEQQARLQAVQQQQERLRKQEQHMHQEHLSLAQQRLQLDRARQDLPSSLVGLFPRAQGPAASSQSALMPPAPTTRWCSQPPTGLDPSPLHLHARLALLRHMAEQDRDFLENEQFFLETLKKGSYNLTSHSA

Variants of: B1
Details: with lura1_human LURAP1, Q96LR2

Q: How did the “effect of a mutation on the interaction” value turn out when T899A was run?
A: The value was “with no effect”.

Variants of: B2
Details: with snf8_human SNF8, Q96H20

Q: Which “effect of a mutation on the interaction” value does the source give for MAMSFEWPWQYRFPPFFTLQPNVDTRQKQLAAWCSLVLSFCRLHKQSSMTVMEAQESPLFNNVKLQRKLPVESIQVVLEELRKKGNLEWLDKSKSSFLIMWRRPEEWGKLIYQWVSRSGQNNSVFTLYELTNGEDTEDEEFHGLDEATLLRALQALQQEHKAEIITVSDGRGVKFF [I76V] here?
A: The value was “with no effect”.

Variants of: B3
Details: with fbf1_human FBF1, Q8TES7

Q: Which “effect of a mutation on the interaction” value does the source give for MFTLPQKDFRAPTTCLGPTCMQDLGSSHGEDLEGECSRKLDQKLPELRGVGDPAMISSDTSYLSSRGRMIKWFWDSAEEGYRTYHMDEYDEDKNPSGIINLGTSENKLCFDLLSWRLSQRDMQRVEPSLLQYADWRGHLFLREEVAKFLSFYCKSPVPLRPENVVVLNGGASLFSALATVLCEAGEAFLIPTPYYGAITQHVCLYGNIRLAYVYLDSEVTGLDTRPFQLTVEKLEMALREAHSEGVKVKGLILISPQNPLGDVYSPEELQEYLVFAKRHRLHVIVDEVYMLSVFEKSVGYRSVLSLERLPDPQRTHVMWATSKDFGMSGLRFGTLYTENQDVATAVASLCRYHGLSGLVQYQMAQLLRDRDWINQVYLPENHARLKAAHTYVLEELRALGIPFLSRGAGFFIWVDLRKYLPKGTFEEEMLLWRRFLDNKVLLSFGKAFECKEPGWFRFVFSDQVHRLCLGMQRVQQVLAGKSQVAEDPRPSQSQEPSDQRR [S393L] here?
A: The value was “with no effect”.

Variants of: B3
Details: with fbf1_human FBF1, Q8TES7
Remark: another data set of the same source

Q: How did the “effect of a mutation on the interaction” value turn out when MFTLPQKDFRAPTTCLGPTCMQDLGSSHGEDLEGECSRKLDQKLPELRGVGDPAMISSNTSYLSSRGRMIKWFWDSAEEGYRTYHMDEYDEDKNPSGIINLGTSENKLCFDLLSWRLSQRDMQRVEPSLLQYADWRGHLFLREEVAKFLSFYCKSPVPLRPENVVVLNGGASLFSALATVLCEAGEAFLIPTPYYGAITQHVCLYGNIRLAYVYLDSEVTGLDTRPFQLTVEKLEMALREAHSEGVKVKGLILISPQNPLGDVYSPEELQEYLVFAKRHRLHVIVDEVYMLSVFEKSVGYRSVLSLERLPDPQRTHVMWATSKDFGMSGLRFGTLYTENQDVATAVASLCRYHGLSGLVQYQMAQLLRDRDWINQVYLPENHARLKAAHTYVSEELRALGIPFLSRGAGFFIWVDLRKYLPKGTFEEEMLLWRRFLDNKVLLSFGKAFECKEPGWFRFVFSDQVHRLCLGMQRVQQVLAGKSQVAEDPRPSQSQEPSDQRR [D59N] was run?
A: Its value is “with no effect”.

From IntAct's records for PubMed 31515488
